Changes are numbered by the printed parent chain. Numbers in names are those of the source.
B1: SEQID-00265: nutritive polypeptide (protein, listed as Bos taurus)
chain: SEGDRLRVELAEKANKLQNELDNVSTLLEEAEKKGIKFAKDAAGLESQLQDTQELLQEETRQKLNLSSRIRQLEEERSSLQEQQEEEEEARRSLEKQLQALQAQLTDTKKKVDDDLGTIENLEEAKKKLLKDVEVLSQRLEEKALAYDKLEKTKTRLQQELDDLLVDLDHQRQIVSNLEKKQKKFDQLLAEEKNISARYAEERDRAEAEAREKETKALSLARALEEALEAREEAERQNKQLRADMEDLMSSKDDVGKNVHELEKSKRALE
B2: SEQID-00236: nutritive polypeptide (protein, listed as Bos taurus)
chain: ALQEAHQQTLDDLQAEEDKVNTLTKAKTKLEQQVDDLEGSLEQEKKLRMDLERAKRKLEGDLKLA
B3: SEQID-00269: nutritive polypeptide (protein)
chain: DLKKKLDDDLGTLENLEELKKKLLKDLELLSQRLEELALAYDKLEKTKTRLQQELDDLLLDLDHQ
B4: SEQID-00598: nutritive polypeptide naturally produced in Flaxseed, recombinantly expressed in E. coli (protein, listed as Linum usitatissimum)
chain: MSRRCPGKNAWPELVGKSGNMAAATVERENRNVHAIVLKEGSAMTKDFRCDRVWVIVNDHGVVTSVPHIT
B5: SEQID-00115: nutritive polypeptide (protein, listed as Sus scrofa)
chain: EDEDDKTVSDLAVVLFETATLRSGYLLPDTKAYGDRIERMLRLSLNIDPDAKVEEEPEEEPEETTEDTTEDTEQDDDEEMDAGADEEEQETSETSTAEKDE
B6: R134M: single amino acid mutant of SEQID-00338 at substrate binding position 134 (protein, listed as Saccharomyces cerevisiae)
chain: MSSSESIRMVLIGPPGAGKGTQAPNLQERFHAAHLATGDMLRSQIAKGTQLGLEAKKIMDQGGLVSDDIMVNMIKDELTNNPACKNGFILDGFPRTIPQAEKLDQMLKEQGTPLEKAIELKVDDELLVARITGMLIHPASGRSYHKIFNPPKEDMKDDVTGEALVQRSDDNADALKKRLAAYHAQTEPIVDFYKKTGIWAGVDASQPPATVWADILNKLGKD
modifications: strain ATCC 204508 / S288c
B7: R42C: single amino acid mutant of SEQID-00338 at substrate binding position 42 (protein, listed as Saccharomyces cerevisiae)
chain: B6 chain with R42C, M134R
modifications: strain ATCC 204508 / S288c
B8: R42A: single amino acid mutant of SEQID-00338 at substrate binding position 42 (protein, listed as Saccharomyces cerevisiae)
chain: B6 chain with R42A, M134R
modifications: strain ATCC 204508 / S288c
B9: R134Y: single amino acid mutant of SEQID-00338 at substrate binding position 134 (protein, listed as Saccharomyces cerevisiae)
chain: B6 chain with M134Y
modifications: strain ATCC 204508 / S288c
B10: SEQID-00099: nutritive polypeptide (protein, listed as Thermosynechococcus elongatus)
chain: MNQSEILEKVKAIVADQLSVDPEKVVPEASFAEDLNADSLDSVELIMALEEEFGVEIPDEEAEKLKTVQDVLDFINNKVAA
B11: SEQID-00102: nutritive polypeptide (protein, listed as Lactobacillus johnsonii)
chain: MTEEEIFNKIADMISERFSIDRDKITKDLNFQNDLDADSIDFVELVMDLEDTFGAEIPDDDAEKLQTVGEAVEYIKSHQN
B12: SEQID-00622: protein of the 168 nutritive polypeptide library (protein, listed as Oryza sativa)
chain: MASEGAVSPAFAYTVVYVKDVAKSAAFYSAAFGYTVRRLDQSHKWAELESGTTTIAFTPLHQRETDALTGAVQLPDSAGERGPVEICFDYADVDAAYRRAVDSGAVPVSPPEQKSWGQKVGYVRDIDGIIVRMGSHVRA
modifications: subsp. japonica
notes: protein of the 168 nutritive polypeptide library
B13: SEQID-00241: nutritive polypeptide (protein, listed as Bos taurus)
chain: SELKKDIDDLELTLAKVEKEKHATENKVKNLTEEMAGLDETIAKLTKEKKALQEAHQQTLDDLQAEEDKVNTLTKAKTKLEQQVDDLEGSLEQEKKLRMDLERAKRKLEGDLKLA

What was measured:
[1] = Solubility of proteins (lyophilized/reconstituted or ultrafiltered); settings: produced in E. coli unless otherwise noted
Procedure: Solubility. […] Protein samples were dried by lyophilization on a FreeZone Freeze Dry System (Labconco) using the manufacturer's standard protocol and then resuspended in buffer to the desired concentration. Centrifugal and tangential ultrafiltration were used to selectively remove buffer from the protein sample until the desired concentration was reached. Centrifugal ultrafiltration of protein solutions was performed by centrifugation (10,000×g) of 10 mg of protein in an Amicon centrifugal filter (Millipore) with a molecular weight cutoff of 3 kDa, 10 kDa, or 30 kDa, depending on the protein size, until the desired contrentration was reached. Ultrafiltration of protein solutions was performed on Hydrosart ultrafiltration cassettes (Sartorius Stedim, Bohemia, NY) with a molecular weight cutoff of 3 kDa, 10 kDa, or 30 kDa, depending on the protein size, at a cross flow rate of 12 L/m2/min. For most processes, transmembrane pressure was maintained at 20 psi and performed until the desired contrentration was reached.
The protein concentration of the above samples was measured by one or a combination of the following methods: Coomassie Plus Protein Assay, absorbance at 280 nm (A280), and total amino acid analysis. Coomassie Plus Protein Assays (Pierce) were performed according to the manufacturer's protocol. Absorbance at 280 nm was measured on a Nanodrop 2000 UV-Vis spectrophotometer. Protein concentration was determined using the A280 value and molar extinction coefficient, which was calculated by primary amino acid sequence using ProtParam (Gasteiger, Elisabeth, et al. The proteomics protocols handbook. Humana Press, 2005. 571-607.). Total amino acids were analyzed by HPLC after acid hydrolysis as described in Henderson, J. W., et al. Agilent Technologies (2010).

[2] = Intact half-life during simulated gastric fluid (SGF) digestion; settings: for SGF Half-life (t½): SGF pH 1.5, pepsin:polypeptide 1:20 w/w, 37° C., produced in E. coli unless otherwise noted; for Half-life: purified proteins, chip electrophoresis, SGF
[3] = pH solubility screen in Citric Acid / Dibasic Sodium Phosphate buffers; type: physicochemical; settings: for pH Range where Protein is >80% detected as Soluble and A650 <1 OD: Low: lower pH of range; for pH Range where Protein is >80% detected as Soluble and A650 <1 OD: High: upper pH of range
Procedure: pH Solubility. […] Protein was either lyophilized and then resuspended in buffer cocktail mixtures, or concentrated and then spiked into buffer cocktail mixtures at a final protein concentration of 5 to 30 mg/ml. As a control, protein was also dissolved in a solution of 8 M urea. Protein solutions were shaken for 10 min at room temperature. Turbidity of proteins was determined by measuring the absorbance of protein solutions at 650 nm. The protein solution was then centrifuged for 10 min at 1100×g to pellet undissolved or precipitated protein. The soluble protein fraction (supernatant) was sampled and protein concentration was measured by one or more of the following methods: Coomassie Plus Protein Assay (Pierce), Chip electrophoresis, gel electrophoresis, and/or absorbance at 280 nm. The pH range over which select proteins remained greater than 80% soluble as determined by Bradford and the A650 value are listed in Table E31C.

[4] = Thermostability, ProteoStat Thermal Shift Stability Kit, temperature of aggregation; type: physicochemical
Procedure: Thermostability. The thermostability of proteins in a buffer cocktail of Citric Acid and Dibasic Sodium Phosphate over a pH range of 2.8 to 7.1 (preparation described above in Table E31B) was determined using the ProteoStat® Thermal Shift Stability Kit (Enzo Life Sciences) according to the manufacturer's standard protocol. Briefly, protein solutions (˜10 mg/ml) containing 1× ProteoStat TS Detection Reagent were heated from 25° C. to 95° C. at a rate of 0.5° C. per 30 sec using a real-time PCR (rtPCR) thermocycler (BioRad) equipped with a plate reader (SynergyMx, Biotek) while monitoring the fluorescence with a Texas Red filter.

[5] = system: kinase activity of SEQID-00338 (AMP + ATP→2ADP); experiment: Kinase activity of SEQID-00338 and mutants, ADP-Glo Max Assay; type: biochemical; settings: 7 μg/mL, 30 minute reaction at 30° C.; N=2
Procedure: Determination of the kinase activity of SEQID-00338. The ADP-Glo™ Max Assay was obtained from Promega (Catalog number V7001, Madison, WI). Adenosine Monophosphate was obtained from Sigma-Aldrich (Catalog number A1752, St. Louis, MO). 5× Kinase Buffer was prepared w/1.211 g Tris Base (Catalog number BP152-2, Fisher Bioreagents, Pittsburgh, PA), 692 μL 12% hydrochloric acid solution (Catalog number BDH3026-500MLP, VWR, Radnor, PA), 10.0 mL 500 mM magnesium chloride (Catalog number BP214-500, Fisher Bioreagents, Pittsburgh, PA) and the volume brought to 50 mL with MilliQ water and filtered through 0.22 μm PES filter (Catalog number SCGP00525, Millipore, Billerica, MA) into a sterile 50 mL tube.
Twelve his-tag purified mutant proteins and the wild-type protein at 35 μg/mL in Tris buffer were serially diluted to 7.0 and 1.4 μg/mL. Prepared kinase reaction mix at 0.5 mM AMP/0.5 mM ATP to test for activity and at 0 mM AMP/0 mM ATP to assay background activity by diluting 5× Kinase Buffer with appropriate volumes of 10 mM AMP and 10 mM ATP in MilliQ water. Duplicate reactions were prepared by mixing 9 μL of the reaction mixture with 6 μL of diluted SEQID-00338, mixing by pipetting up and down and dispensing 5 μL into a 384-well white OptiPlate (PerkinElmer, Waltham, MA). An ADP standard curve was prepared by serially diluting 4 mM ADP in MilliQ water and adding kinase buffer to 1× for a standard at 0.0005, 0.001, 0.005, 0.01, 0.05, 0.1, 1.5, 1, 2, 3, and 4 mM ADP. The plate was covered with a foil plate seal and incubated at 30° C. for 30 min. Following the kinase reaction, 5 μL of ADP-Glo™ Reagent was added to each well. The plate was sealed with a foil plate seal and placed on a horizontal plate shaker at 450 rpm for 2 minutes at room temperature. The plate was removed from the plate shaker and incubated at room temperature for 40 minutes. The plate was then centrifuged for 15 seconds at 1109× rcf and 10 μL of ADP-Glo™ Max Detection Reagent was added. The plate was sealed with a foil plate seal and shaken on a horizontal plate shaker at 450 rpm at room temperature for 2 minutes. The plate was then removed from the plate shaker and incubated at room temperature for 60 minutes. The plate was centrifuged for 15 seconds at 1109× rcf and the luminescence read on an EnspireAlpha plate reader (PerkinElmer, Waltham, MA).
The ADP standard curve was used to determine the concentration of ADP in sample wells in the presence or absence of substrate. Concentrations were determined by performing a non-linear 4 parameter logistic on the X=log(X) transformed ADP standard luminescence values. […] Where the background concentration of ADP in the absence of substrate was calculable the average of those values were subtracted from the calculated ADP concentration in the substrate incubated wells. Activity knock out was calculated by percentage activity relative to purified wild-type protein at the same concentration.

AVG proportion activity, percentage AMP + ATP→2ADP converted relative to wild-type [5] [%] | Molecule | Solubility [1] [mg/mL] | SGF Half-life (t½) [2] [min] | pH Range where Protein is >80% detected as Soluble and A650 <1 OD: Low [3] | pH Range where Protein is >80% detected as Soluble and A650 <1 OD: High [3] | Tagg (pH 7.1) ([4]; heated from 25° C. to 95° C.) | other results
– | B1 | 95 | 29 | 5.1 | 9.1 | >95 | pH Range where Protein is >80% detected as Soluble and A650 <1 OD: Other ([3]; other pH where soluble): 3
– | B2 | 60 | 10 | – | – | – | –
– | B3 | – | 41 | 7.2 | 9.1 | >95 | –
– | B4 | 150 | 0.5 | – | – | – | Half-life [2]: 0.5 min
– | B5 | 70 | – | – | – | – | –
0.3 | B6 | – | – | – | – | – | –
1.8 | B7 | – | – | – | – | – | –
0.9 | B8 | – | – | – | – | – | –
0.2 | B9 | – | – | – | – | – | –
– | B10 | 91 | 1 | – | – | 64 | –
– | B11 | 120 | 0.6 | – | – | >95 | –
– | B12 | – | 6.6 | 2.8 | 7.1 | – | Half-life [2]: 6.6 min; Tagg pH 2.8 ([4]; pH 2.8, NS = protein not soluble): 58.5; Tagg pH 3.7 ([4]; pH 3.7, NS = protein not soluble): 42; Tagg pH 3.9 ([4]; pH 3.9, NS = protein not soluble): 42; Tagg pH 4.3 ([4]; pH 4.3, NS = protein not soluble): 43.5; Tagg pH 4.6 ([4]; pH 4.6, NS = protein not soluble): 43.5; Tagg pH 5.0 ([4]; pH 5.0, NS = protein not soluble): 42.5; Tagg pH 5.6 ([4]; pH 5.6, NS = protein not soluble): 45.5; Tagg pH 6.0 ([4]; pH 6.0, NS = protein not soluble): 46; Tagg pH 6.5 ([4]; pH 6.5, NS = protein not soluble): 47; Tagg (pH 7.1) ([4]; heated 25° C. to 95° C., NS = protein not soluble): 95
– | B13 | – | 0.3 | 4.3 | 9.1 | >95 | –
